Assay: yeast display, Sf9 membrane polyspecificity reagent, FACS + sequencing; frameworks hold sequencing errors
Procedure, shortened: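 Sorting gates, low and high (top ~1%), were placed on anti-HA fluorescence to track expression and on streptavidin fluorescence to track reagent binding. A clone's polyreactivity label is taken from the gate it came out of. The reagent was 10% biotinylated, detergent-solubilized Sf9 membrane, applied for 1 hour at 4 °C to galactose-induced yeast display cells.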

Row | Sequence | polyreactivity (PSR sort gate)
1 | QVQLVESGGGLVQAAGSLRLSCAASGRIFFAYAMGWNRQEPGKERELVASITSGGSTNYADSVKGRFTISRDNAKNTVYLQMNSLKPEDTAVYYCAARSRFSNLYVRFYYWGQGTQVTVSS | high polyreactivity
2 | QVQLVESGGGLVQAAGSLRLSCAASGRIFYSYAMGWYRQAPGKERELVAASSFSVGSTYYADSVKGRFTISRDNAKNTVYLQMNSLKPEDTAVYYCAASLGFPGYEYWGQGTQVTVSS | low polyreactivity
3 | QVQLVESGGGLVQAAGSLRLSCAASGRTFFPYAMGWYRQAPGKEREFVAAITKTDDSTYYADSVKGRFTISRDNAKNTVYLQMNSLKPEDSAVYYCNAGDTQIRFYYWGQVTQVTVSS | low polyreactivity
4 | QVQLVESGGGLVQAAGSLRLSCAASGRTFVFYAMGWYRQAPGKERELVAAISDGDRTNYADSVKGRFTISRDNAKNTVYLQMNSLKPEDTAVYYCAADREFWWAVVYTYEYYYWGQGTQVTVSS | low polyreactivity
5 | QVQLVESGGGLVQAAGSLRLSCAASGSIAMGWYRQAPGKERELVATISSSGGSTYYADSVKGRFTISRDNAKNTVYLQMNSLKPEDTAVYYCAAGGYTLYHAWGYYWGQGTQVTVSS | low polyreactivity
6 | QVQLVESGGGLVQAAGSLRLSCAASGSTFAANAMGWYRQAPGKERELVAAITWTGGSTYYADSVKGRFTISRDNAKNTVYLQMNSLKPEDTAVYYCARRSYGRYYYRYRAYDYWGQGTQVTVSS | high polyreactivity
7 | QVQLVESGGGLVQAAGSLRLSCAASVNTFFKNAMGWYRQAPGKERELVAAISKGGGSTYYADSVKGRFTISRDNAKNTVYLQMNSLKPEDTAVYYCAADTFGVYASTYDYWGQGTQVTVSS | high polyreactivity
8 | QVQLVESGGGLVQAAGSRRLSCDASGRIFGWYAMGWSRQAPGKERELVAAITNSGGSPYCADSVKGRFTISRDNAKNTVYLERKSLIPEDTAVYYCARSFSFYGKRKYDYWGQGTQVTVSS | high polyreactivity
9 | QVQLVESGGGLVQAEGSLRLSCAASGRTFRPYALGWYRQAPGKERELVAVITSGGRTDYADSVKGRFTISRDNAKNTVYLQMNSLKPEDTAVYYCNAGAVYWGYSRGWYERDYWGQGTQVTVSS | high polyreactivity
10 | QVQLVESGGGLVQAGASLRLCCAASGRILRRYAMGWYRQAPGKEWELVAAITARTGSTYYADSVKGRFTISRDTAKYTVYLQMNSLKPEDTAVYYCNAVNELTGGVIFNYWGQGTQVTVSS | high polyreactivity
11 | QVQLVESGGGLVQAGASLRLSCAASGCTFVVNAMGWYRQAPGKERELVAAITDGSSTNYADSVKGRFTISRDNAKYTVYLQMTRLIRQDTAVYFCAAVPYIDLDDINVEHPQYGYWGQGTQVTVSS | low polyreactivity
12 | QVQLVESGGGLVQAGASLRLSCAASGFIFRHYAMGWYRQAPGKARELVAVINWSGSSTYYADSVKGRFTISRDNAKNTVYLQMNSLKPEDTAVYYCAVRSLRVDKYGYWGQGTQVTVSS | high polyreactivity
13 | QVQLVESGGGLVQAGASLRLSCAASGFTFGTYAMGWYRQAPGKERELVAAITKSGVRTYYADSVKGRFTISRDNAKNTVYLQMNSLKPEDTAVYYCNARGHSSLSTIVDFWGQGTQVTVSS | high polyreactivity
14 | QVQLVESGGGLVQAGASLRLSCAASGFTLYSYAMGWYRQAPGKERELDASISTGGSTYYADSVKGRFTISRDNAKNTVYLQMNSLKPVDTAVYYSAVDGWYYTSWSFYRRYEYWGQGTQVSVSS | high polyreactivity
15 | QVQLVESGGGLVQAGASLRLSCAASGGIFVVYGMGWYRQAPGNERELVAAISWRGGSTYYADSVKGRFTISRDNAKNTVYLQMNSLKPEDTAVYYCAADQYYGGYDYWGQGTQVTVSS | low polyreactivity
16 | QVQLVESGGGLVQAGASLRLSCAASGIIYAYNAMGWYRPAPGKERELVATITDSGGSTSYADSVKGRFTISRDNAKNTVYLQMNSLKPEDTAVYYCAVLPVYWYWRNYVYLSGYDYWGQGTQVTVSS | low polyreactivity
17 | QVQLVESGGGLVQAGASLRLSCAASGLIFYFYAMGWYRQAPGKERELVATIRSSTGSTYYADSVKGRFTISRDNAKNTVYLQMNSLKPEDTAVYYCNAGIKRYEWYQFDYWGQGTQVSVSS | low polyreactivity
18 | QVQLVESGGGLVQAGASLRLSCAASGRIFWHNAMGWYRQAPGKERELVAAMTRGGSTYYADSVKGRFTISRDNAKNTVYLQMNSLKPEDTAVYYCATLGSLRYYWPGYDYWGQGTQVTVSS | low polyreactivity
19 | QVQLVESGGGLVQAGASLRLSCAASGRILKTYAMGSYRQAPGKERELVAAITGRGGRTYYADSVKGRFTISRDNAKNTFYLQMISLKPEDTAVYYCAAYYGPSRSLYYYWGQGSQVTVSS | high polyreactivity
20 | QVQLVESGGGLVQAGASLRLSCAASGRTFLRYAMGWYRQAPGKERELVAAISSRGGSTYYADSVKGRFTISRDNAKNTVYLQMNSLIPEDTAVYYCAARGCRSQVPVRVFRYDFWGQGTQVTVSS | high polyreactivity
21 | QVQLVESGGGLVQAGASLRLSCAASGRTFRYYDMGWSRQEPGKEREFVAAITWRGGSTYFADSVKGRFTISRDNAKNTVFLQMNSLKPEDTAVYYCATDSLRLYGGKRDLYFWGQGTQVTVSS | low polyreactivity
22 | QVQLVESGGGLVQAGASLRLSCAASGRTFYNYAMGWYRQARGKEREFVASMTTSGGSTYYADSVKGRFTISRDNAKNTVYLQMNSLKPEDTAVYYCARRAYRSWTGNSYEYYYWGQGTQVTVSS | high polyreactivity

Row | Sequence | polyreactivity (PSR sort gate)
23 | QVQLVESGGGLVQAGASLRLSCAASGRTSYRYAMGWNRQAPGKERELVAAISFGGGSTYYADSVKGRFPISRDNAKNTVYLQMNSLKPEDTAFYYCATDRVKYRNIYTDTGFDYWGQGTQVTVSS | high polyreactivity
24 | QVQLVESGGGLVQAGASLRLSCAASGSTFARYAMGWYRQAPGKERELVAAISSSGRTYYADSVKGRFTISRDNAKNSVYLQMNSLKPEDTAVYYCNAPVARGEASYYWGQGTQVTVSS | high polyreactivity
25 | QVQLVESGGGLVQAGASLRLSCAASGSTFGGNAMGWSRQAPWKERELVAAINWTGGSTYADSVKGRFTISRDNAKNTVYLQMNRLKPEDTAVYYCAIRATWGSSTQYLQNQEYDYWGQGSQVTVSS | low polyreactivity
26 | QVQLVESGGGLVQAGASLRLSCAASGSTFGYYAMGWNRQAPGKERELVAAISTRGGSTYYADSVKGRFTISRDNAKTTVYLQMNSLKPEDIAVYYCAVLGTPYGLNDYCGQGTQVTVSS | high polyreactivity
27 | QVQLVESGGGLVQAGASLRLSCAASGSTFLQNAMGWYRQAPGKVRELVAAITRSGGSTNYADSVKGRFKISRDNAKNTVYLQKNSLKPEDTAVYYCPAGGRRYDDDYWGQGTQVTVSS | high polyreactivity
28 | QVQLVESGGGLVQAGASLRLSCAASGYTLDNYAMGWYRQAPWKERELVAGITFSGGSTFYADSVKGRFTISRDNAKNTVYLQMNRLKPEDTAVYYCAAEAEFQADHKYGYWGQGTQVTVSS | low polyreactivity
29 | QVQLVESGGGLVQAGASLRLSCADSGRISESNDMGWNRQAPGKQRELVAAISSSGGSTYYADSVMGRFPISRDNAKNTVYLQMNSLKPEDTALYYCNAVYYRTVLKIGVYEYDYWGQGTQVTVSS | low polyreactivity
30 | QVQLVESGGGLVQAGASLRLSCAPSGLIFTYNARGWYRQAPGKERELVAAITYRVSSTYYADSVKGRFTISRDNAKNSVYLQMNSLKPEDTAVYYCAAPRLIRFVTYYSWGLGTQVTVSS | high polyreactivity
31 | QVQLVESGGGLVQAGCSLLLICADSGFIFYGYVMGWYRQAPGKEMEWVAGITSSGTSTYADSVKGRFTISRDNAKNTVFLQMNSLKPEDTAAYYCAALRRQYGARDYDYWGQGTQVTVSA | low polyreactivity
32 | QVQLVESGGGLVQAGCSLLLSCAASGRSFTHNAMGWYRPAHGPERELGAAITSRGRTTYADSVKGRFTISRDNAKNTVYVQMNSLKPEDTAVYYCATSVWFPITSYDYWGQGTQVTVSS | low polyreactivity
33 | QVQLVESGGGLVQAGCSLRISCAASGFIFKRNAMGWYRQAPGKERELVAAITWRGGSTYYADSVKGRFTISRDTAKNTVYLQMNSLKPEDTAVYYCAADSYYPRGYRTGWSESAYVSWGQGTLVTVSS | high polyreactivity
34 | QVQLVESGGGLVQAGCSLRISCAASGSTFYINAMGWYRQAPGKERELVAAISRGGSTYYADSVKGRFTISRDNAKNTVYLQMNSLKPEDTAVYYCAADFSRSYRFNYWGQGTQVTVSS | high polyreactivity
35 | QVQLVESGGGLVQAGCSLRLICAASGFIFRTYAMGWYRQAPGKESELVAAISRGGVRTYYADSVKGRFTISRDNAKNTVYLQMNSLKPEDTAVYYCAADDVHGIYDYWGQGTQVTVSS | high polyreactivity
36 | QVQLVESGGGLVQAGCSLRLICAASRSTFTDNAMGWYRQAPGKESELVAAISTGTSTYADSVKGRFTISRDNATNTVYLQMNRLKPEDTAGYYCAADVGIRPLNYHPYNYWGQGTQVTVSS | low polyreactivity
37 | QVQLVESGGGLVQAGCSLRLRCAASGRIYPYYAMGWYRQAPGKERELVAAIRGGGTSTRYADSVKGRFTISRDNAKKTVDLQMNSLKPSDTADYYCAAVWYSGSTRYSKYLEYYYWGQGTQVTVSS | high polyreactivity
38 | QVQLVESGGGLVQAGCSLRLSCAACGFTFIPNAMGWYRQAPAKERELVAAISFGGGSTYYADSVKGRFTISRDNAKNTVYLQMNSMKPEETAVYYCAAEAFVSYEPYWYVRYYSSYNYWGQGTQVTVSS | high polyreactivity
39 | QVQLVESGGGLVQAGCSLRLSCAASGFTFSYYAMGSYRQAPGKERELVASISRSGNTYYADSVKGRFTISRDNAKNTVYLQMNSLKPEDTAVYYCAAKRKSYYSYNFDYWGQGTQVTVSS | high polyreactivity
40 | QVQLVESGGGLVQAGCSLRLSCAASGIIFALNAMGWYRQAPGKERELVAAISDGDSTHYADSVKGRFTISRDNAKNTVYLQMNSLKPEDTAVYYCAVDNRDLFFYPGGFDYWGQGTQVTVSS | low polyreactivity
41 | QVQLVESGGGLVQAGCSLRLSCAASGITFRRYTMGWYRPAPGKERELVATISLSDGNTYYADSVKGRFTISRDNAKNTVYLQMNSLKPEDTAVYYCTADVRYGRDHWGQATQVTVSS | low polyreactivity
42 | QVQLVESGGGLVQAGCSLRLSCAASGLTSTANAMGWYRQAPGKERELVAGITTGGSTYYADSVKGRFTISRDNAKNTVYLQMISLKPEDTAVYYCNAPTYADTTYDYWGQGTQVTVSS | low polyreactivity
43 | QVQLVESGGGLVQAGCSLRLSCAASGNIFYRYAKGRYRPAPGKERELVAGITWSGGSTYYADSVKGRFTISRDNAKNTVYLQMTSLKPEDTAVYYCGQANYYWGQGTQVTVSS | low polyreactivity

From the nanobody polyreactivity screen of Harvey et al. (2022)
